The supplement of paper PMC5998384

What was measured:
[1] = test system: HeLa Kyoto; test: solubility in G1/S (NP-40 vs SDS abundance) (log2 ratio); higher = more soluble; settings: cell cycle stage: G1/S
[2] = test system: HeLa Kyoto; test: melting temperature (median over replicates), in situ; higher = more thermally stable
[3] = test system: HeLa Kyoto; test: thermal stability score vs G1/S (z-score of summed log2 fold changes over temperatures); higher = more thermally stable than in G1/S
[4] = test system: HeLa Kyoto; test: solubility change mitosis vs G1/S (difference of NP-40 vs SDS log2 ratios) (log2 ratio difference); higher = more soluble in mitosis
[5] = cell cycle stage: early G1 (4.5 h after nocodazole release)
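Throughout, for melting temperature (median over replicates), in situ: HeLa Kyoto cells synchronized by double thymidine or nocodazole block, proteins quantified by TMT10plex mass spectrometry, three independent biological replicates.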
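Throughout, for solubility change mitosis vs G1/S (difference of NP-40 vs SDS log2 ratios): synchronized HeLa Kyoto cells (double thymidine block for G1/S, nocodazole release for mitosis), protein amounts in NP-40 versus SDS lysates quantified by mass spectrometry, three biological replicates.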
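Throughout, for solubility in G1/S (NP-40 vs SDS abundance): HeLa Kyoto cells arrested at G1/S by double thymidine block, proteins quantified by TMT10plex mass spectrometry in mild NP-40 versus SDS extracts, three biological replicates.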
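Throughout, for thermal stability score vs G1/S (z-score of summed log2 fold changes over temperatures): synchronized HeLa Kyoto cells, proteins quantified by TMT10plex mass spectrometry, three biological replicates, mitosis taken 0.5 h after nocodazole release, G1/S directly after double thymidine block.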

| Sequence | solubility in G1/S (log2) [1] | melting temperature ([2]; cell cycle stage: G1/S) [°C] | melting temperature ([2]; cell cycle stage: mitosis) [°C] | thermal stability score [3, 5] | thermal stability score ([3]; cell cycle stage: mitosis) | solubility change mitosis (log2) [4] |
| --- | --- | --- | --- | --- | --- | --- |
| MVKIVTVKTQAYQDQKPGTSGLRKRVKVFQSSANYAENFIQSIISTVEPAQRQEATLVVGGDGRFYMKEAIQLIARIAAANGIGRLVIGQNGILSTPAVSCIIRKIKAIGGIILTASHNPGGPNGDFGIKFNISNGGPAPEAITDKIFQISKTIEEYAVCPDLKVDLGVLGKQQFDLENKFKPFTVEIVDSVEAYATMLRSIFDFSALKELLSGPNRLKIRIDAMHGVVGPYVKKILCEELGAPANSAVNCVPLEDFGGHHPDPNLTYAADLVETMKSGEHDFGAAFDGDGDRNMILGKHGFFVNPSDSVAVIAANIFSIPYFQQTGVRGFARSMPTSGALDRVASATKIALYETPTGWKFFGNLMDASKLSLCGEESFGTGSDHIREKDGLWAVLAWLSILATRKQSVEDILKDHWQKYGRNFFTRYDYEEVEAEGANKMMKDLEALMFDRSFVGKQFSANDKVYTVEKADNFEYSDPVDGSISRNQGLRLIFTDGSRIVFRLSGTGSAGATIRLYIDSYEKDVAKINQDPQVMLAPLISIALKVSQLQERTGRTAPTVIT [PGM1] | 0.266 | 57.6 | 58.3 | -0.26 | 0.494 | -0.0698 |
| MKCVFVTVGTTSFDDLIACVSAPDSLQKIESLGYNRLILQIGRGTVVPEPFSTESFTLDVYRYKDSLKEDIQKADLVISHAGAGSCLETLEKGKPLVVVINEKLMNNHQLELAKQLHKEGHLFYCTCRVLTCPGQAKSIASAPGKCQDSAALTSTAFSGLDFGLLSGYLHKQALVTATHPTCTLLFPSCHAFFPLPLTPTLYKMHKGWKNYCSQKSLNEASMDEYLGSLGLFRKLTAKDASCLFRAISEQLFCSQVHHLEIRKACVSYMRENQQTFESYVEGSFEKYLERLGDPKESAGQLEIRALSLIYNRDFILYRFPGKPPTYVTDNGYEDKILLCYSSSGHYDSVYSKQFQSSAAVCQAVLYEILYKDVFVVDEEELKTAIKLFRSGSKKNRNNAVTGSEDAHTDYKSSNQNRMEEWGACYNAENIPEGYNKGTEETKSPENPSKMPFPYKVLKALDPEIYRNVEFDVWLDSRKELQKSDYMEYAGRQYYLGDKCQVCLESEGRYYNAHIQEVGNENNSVTVFIEELAEKHVVPLANLKPVTQVMSVPAWNAMPSRKGRGYQKMPGGYVPEIVISEMDIKQQKKMFKKIRGKEVYMTMAYGKGDPLLPPRLQHSMHYGHDPPMHYSQTAGNVMSNEHFHPQHPSPRQGRGYGMPRNSSRFINRHNMPGPKVDFYPGPGKRCCQSYDNFSYRSRSFRRSHRQMSCVNKESQYGFTPGNGQMPRGLEETITFYEVEEGDETAYPTLPNHGGPSTMVPATSGYCVGRRGHSSGKQTLNLEEGNGQSENGRYHEEYLYRAEPDYETSGVYSTTASTANLSLQDRKSCSMSPQDTVTSYNYPQKMMGNIAAVAASCANNVPAPVLSNGAAANQAISTTSVSSQNAIQPLFVSPPTHGRPVIASPSYPCHSAIPHAGASLPPPPPPPPPPPPPPPPPPPPPPPPPPPALDVGETSNLQPPPPLPPPPYSCDPSGSDLPQDTKVLQYYFNLGLQCYYHSYWHSMVYVPQMQQQLHVENYPVYTEPPLVDQTVPQCYSEVRREDGIQAEASANDTFPNADSSSVPHGAVYYPVMSDPYGQPPLPGFDSCLPVVPDYSCVPPWHPVGTAYGGSSQIHGAINPGPIGCIAPSPPASHYVPQGM [ALG13] | 0.392 | 53.4 | 52.2 | 2.01 | -0.34 | 0.0555 |
| MEANGLGPQGFPELKNDTFLRAAWGEETDYTPVWCMRQAGRYLPEFRETRAAQDFFSTCRSPEACCELTLQPLRRFPLDAAIIFSDILVVPQALGMEVTMVPGKGPSFPEPLREEQDLERLRDPEVVASELGYVFQAITLTRQRLAGRVPLIGFAGAPWTLMTYMVEGGGSSTMAQAKRWLYQRPQASHQLLRILTDALVPYLVGQVVAGAQALQLFESHAGHLGPQLFNKFALPYIRDVAKQVKARLREAGLAPVPMIIFAKDGHFALEELAQAGYEVVGLDWTVAPKKARECVGKTVTLQGNLDPCALYASEEEIGQLVKQMLDDFGPHRYIANLGHGLYPDMDPEHVGAFVDAVHKHSRLLRQN [UROD] | 0.254 | 56.5 | 56.7 | -0.168 | -0.608 | -0.193 |
| MENLKHIITLGQVIHKRCEEMKYCKKQCRRLGHRVLGLIKPLEMLQDQGKRSVPSEKLTTAMNRFKAALEEANGEIEKFSNRSNICRFLTASQDKILFKDVNRKLSDVWKELSLLLQVEQRMPVSPISQGASWAQEDQQDADEDRRAFQMLRRDNEKIEASLRRLEINMKEIKETLRQYLPPKCMQEIPQEQIKEIKKEQLSGSPWILLRENEVSTLYKGEYHRAPVAIKVFKKLQAGSIAIVRQTFNKEIKTMKKFESPNILRIFGICIDETVTPPQFSIVMEYCELGTLRELLDREKDLTLGKRMVLVLGAARGLYRLHHSEAPELHGKIRSSNFLVTQGYQVKLAGFELRKTQTSMSLGTTREKTDRVKSTAYLSPQELEDVFYQYDVKSEIYSFGIVLWEIATGDIPFQGCNSEKIRKLVAVKRQQEPLGEDCPSELREIIDECRAHDPSVRPSVDEILKKLSTFSK [MLKL] | 0.126 | 49.6 | 50 | -0.232 | 0.87 | -0.0647 |
| MSLLRSLRVFLVARTGSYPAGSLLRQSPQPRHTFYAGPRLSASASSKELLMKLRRKTGYSFVNCKKALETCGGDLKQAEIWLHKEAQKEGWSKAAKLQGRKTKEGLIGLLQEGNTTVLVEVNCETDFVSRNLKFQLLVQQVALGTMMHCQTLKDQPSAYSKGFLNSSELSGLPAGPDREGSLKDQLALAIGKLGENMILKRAAWVKVPSGFYVGSYVHGAMQSPSLHKLVLGKYGALVICETSEQKTNLEDVGRRLGQHVVGMAPLSVGSLDDEPGGEAETKMLSQPYLLDPSITLGQYVQPQGVSVVDFVRFECGEGEEAAETE [TSFM] | 0.283 | 47.6 | 48.9 | -0.0634 | 3.2 | -0.0285 |
| MAAAVGVRGRYELPPCSGPGWLLSLSALLSVAARGAFATTHWVVTEDGKIQQQVDSPMNLKHPHDLVILMRQEATVNYLKELEKQLVAQKIHIEENEDRDTGLEQRHNKEDPDCIKAKVPLGDLDLYDGTYITLESKDISPEDYIDTESPVPPDPEQPDCTKILELPYSIHAFQHLRGVQERVNLSAPLLPKEDPIFTYLSKRLGRSIDDIGHLIHEGLQKNTSSWVLYNMASFYWRIKNEPYQVVECAMRALHFSSRHNKDIALVNLANVLHRAHFSADAAVVVHAALDDSDFFTSYYTLGNIYAMLGEYNHSVLCYDHALQARPGFEQAIKRKHAVLCQQKLEQKLEAQHRSLQRTLNELKEYQKQHDHYLRQQEILEKHKLIQEEQILRNIIHETQMAKEAQLGNHQICRLVNQQHSLHCQWDQPVRYHRGDIFENVDYVQFGEDSSTSSMMSVNFDVQSNQSDINDSVKSSPVAHSILWIWGRDSDAYRDKQHILWPKRADCTESYPRVPVGGELPTYFLPPENKGLRIHELSSDDYSTEEEAQTPDCSITDFRKSHTLSYLVKELEVRMDLKAKMPDDHARKILLSRINNYTIPEEEIGSFLFHAINKPNAPIWLILNEAGLYWRAVGNSTFAIACLQRALNLAPLQYQDVPLVNLANLLIHYGLHLDATKLLLQALAINSSEPLTFLSLGNAYLALKNISGALEAFRQALKLTTKCPECENSLKLIRCMQFYPFLYNITSSVCSGTVVEESNGSDEMENSDETKMSEEILALVDEFQQAWPLEGFGGALEMKGRRLDLQGIRVLKKGPQDGVARSSCYGDCRSEDDEATEWITFQVKRVKKPKGDHKKTPGKKVETGQIENGHRYQANLEITGPKVASPGPQGKKRDYQRLGWPSPDECLKLRWVELTAIVSTWLAVSSKNIDITEHIDFATPIQQPAMEPLCNGNLPTSMHTLDHLHGVSNRASLHYTGESQLTEVLQNLGKDQYPQQSLEQIGTRIAKVLEKNQTSWVLSSMAALYWRVKGQGKKAIDCLRQALHYAPHQMKDVPLISLANILHNAKLWNDAVIVATMAVEIAPHFAVNHFTLGNVYVAMEEFEKALVWYESTLKLQPEFVPAKNRIQTIQCHLMLKKGRRSP [TTC17] | 0.107 | 54.8 | 56.8 | 2.32 | 2.24 | 0.0442 |
| MEPLAAYPLKCSGPRAKVFAVLLSIVLCTVTLFLLQLKFLKPKINSFYAFEVKDAKGRTVSLEKYKGKVSLVVNVASDCQLTDRNYLGLKELHKEFGPSHFSVLAFPCNQFGESEPRPSKEVESFARKNYGVTFPIFHKIKILGSEGEPAFRFLVDSSKKEPRWNFWKYLVNPEGQVVKFWKPEEPIEVIRPDIAALVRQVIIKKKEDL [GPX8] | 0.0659 | 52.8 | 52.3 | 3.63 | 4.95 | -0.208 |
| MEDHQHVPIDIQTSKLLDWLVDRRHCSLKWQSLVLTIREKINAAIQDMPESEEIAQLLSGSYIHYFHCLRILDLLKGTEASTKNIFGRYSSQRMKDWQEIIALYEKDNTYLVELSSLLVRNVNYEIPSLKKQIAKCQQLQQEYSRKEEECQAGAAEMREQFYHSCKQYGITGENVRGELLALVKDLPSQLAEIGAAAQQSLGEAIDVYQASVGFVCESPTEQVLPMLRFVQKRGNSTVYEWRTGTEPSVVERPHLEELPEQVAEDAIDWGDFGVEAVSEGTDSGISAEAAGIDWGIFPESDSKDPGGDGIDWGDDAVALQITVLEAGTQAPEGVARGPDALTLLEYTETRNQFLDELMELEIFLAQRAVELSEEADVLSVSQFQLAPAILQGQTKEKMVTMVSVLEDLIGKLTSLQLQHLFMILASPRYVDRVTEFLQQKLKQSQLLALKKELMVQKQQEALEEQAALEPKLDLLLEKTKELQKLIEADISKRYSGRPVNLMGTSL [CDK5RAP3] | 0.203 | 49.5 | 49.4 | 1.2 | 2.62 | -0.0399 |
| MTSMASLFSFTSPAVKRLLGWKQGDEEEKWAEKAVDALVKKLKKKKGAMEELEKALSSPGQPSKCVTIPRSLDGRLQVSHRKGLPHVIYCRVWRWPDLQSHHELKPLDICEFPFGSKQKEVCINPYHYKRVESPVLPPVLVPRHNEFNPQHSLLVQFRNLSHNEPHMPQNATFPDSFHQPNNTPFPLSPNSPYPPSPASSTYPNSPASSGPGSPFQLPADTPPPAYMPPDDQMGQDNSQPMDTSNNMIPQIMPSISSRDVQPVAYEEPKHWCSIVYYELNNRVGEAFHASSTSVLVDGFTDPSNNKSRFCLGLLSNVNRNSTIENTRRHIGKGVHLYYVGGEVYAECLSDSSIFVQSRNCNFHHGFHPTTVCKIPSSCSLKIFNNQEFAQLLAQSVNHGFEAVYELTKMCTIRMSFVKGWGAEYHRQDVTSTPCWIEIHLHGPLQWLDKVLTQMGSPLNPISSVS [SMAD5] | -0.0752 | 50.3 | 50 | 0.616 | 0.53 | -0.0922 |
| MSEEIITPVYCTGVSAQVQKQRARELGLGRHENAIKYLGQDYEQLRVRCLQSGTLFRDEAFPPVPQSLGYKDLGPNSSKTYGIKWKRPTELLSNPQFIVDGATRTDICQGALGDCWLLAAIASLTLNDTLLHRVVPHGQSFQNGYAGIFHFQLWQFGEWVDVVVDDLLPIKDGKLVFVHSAEGNEFWSALLEKAYAKVNGSYEALSGGSTSEGFEDFTGGVTEWYELRKAPSDLYQIILKALERGSLLGCSIDISSVLDMEAITFKKLVKGHAYSVTGAKQVNYRGQVVSLIRMRNPWGEVEWTGAWSDSSSEWNNVDPYERDQLRVKMEDGEFWMSFRDFMREFTRLEICNLTPDALKSRTIRKWNTTLYEGTWRRGSTAGGCRNYPATFWVNPQFKIRLDETDDPDDYGDRESGCSFVLALMQKHRRRERRFGRDMETIGFAVYEVPPELVGQPAVHLKRDFFLANASRARSEQFINLREVSTRFRLPPGEYVVVPSTFEPNKEGDFVLRFFSEKSAGTVELDDQIQANLPDEQVLSEEEIDENFKALFRQLAGEDMEISVKELRTILNRIISKHKDLRTKGFSLESCRSMVNLMDRDGNGKLGLVEFNILWNRIRNYLSIFRKFDLDKSGSMSAYEMRMAIESAGFKLNKKLYELIITRYSEPDLAVDFDNFVCCLVRLETMFRFFKTLDTDLDGVVTFDLFKWLQLTMFA [CAPN1] | -0.203 | 55.9 | 56.5 | -0.914 | -1.67 | -0.164 |
